In article PMC12691643:
Several values for one entry are separate records, joined by “and”; a condition that tells them apart may be missing. Equal entries are not always repeated.

B1: Arhgef6, endogenous in murine DC2.4 cells (natural protein)
chain: MNPEERLVTWLISLGVLESPKKTVCDPEEFLKSSLKNGVVLCKLINRLLPGSVEKYCLEPQTEADCIDNINDFLKGCATLQVEVFEPDDLYSGANFSKVLNTLLAVNKATEDQLSERPCGRSSSLSAATSSQTNPQVAVPSTAPEQHSEEKAEMTENGSHQLIVKARFNFKQTNEDELSVCKGDIIYVTRVEEGGWWEGTLNGRTGWFPSNYVREIKPSERPLSPKAIKGFDTAPLTKNYYTVVLQNILDTEKEYAKELQSLLVTYLRPLQSNNNLSTVEFTCLLGNFEEVCTFQQTLCQALEECSKFPENQHKVGGCLLNLMPHFKSMYLAYCANHPSAVNVLTQHSDDLERFMENQGASSPGILILTTSLSKPFMRLEKYVTLLQELERHMEDTHPDHQDILKAIIAFKTLMGQCQDLRKRKQLELQILSEPIQAWEGDDIKTLGNVIFMSQVVMQHGACEEKEERYFLLFSSVLIMLSASPRMSGFMYQGKIPIAGMVVNRLDEIEGSDCMFEITGSTVERIVVHCNNNQDFQEWMEQLNRLTKGPTSCGSLSKTSSSSCSTHSSFSSTGQPRGPLEPPQIIKPWSLSCLRPAPPLRPSAALGYKERMSYILKESSKSPKTMKKFLHKRKTERKASEEEYVIRKSTAALEEDAQILKVIEAYCTSASFQQGTRKDSVPQVLLPEEEKLIIEETRSNGQTIIEEKSLVDTVYALKDEVKELKQENKKMKQCLEEELKSRKDLEKLVRKLLKQTDECIRSESSSKTSILQ
B2: Nckap1l (Hem1), endogenous in murine DC2.4 cells (natural protein)
chain: MSLTSAYQLKLAEKLTILNDRGQGVLIRMYNIKKTCSDSKSKPPFLLEKSMESCLKYINKKFPNIDVRNSTQHLGPVHREKAEIIRFLTNYYQSFVDVMEFRDHVYELLNTIDACQCHFDINLNFDFTRSYLDLIVTYTSVILLLSRIEDRRILIGMYNCAHEMLHGHSDPSFARLGQMVLEYDHPLKKLTEEFGPHTKAVSGALLSLHFLFVRRNQGAEQWRSAQLLSLISSPPAMINPANSDTMACEYLSVEVMERWIIIGFLLCHGCLNSNSQCQKLWKLCLEGSLYITLIREDVLQVHKVTEDLFSSLKGYSKRVADIKESKEHAITNSGQFHCQRRQFLRTAVKELETVLNDEPGLLGPKALFAFMALSFIRDEVTWLVRHTENVTKTKTPEDYADSSIAELLFLLEEIRALVRRHIKVIQQYHLQYLARFDVLVLSDIIQNLSVCPEEESVIMSSFVSILSSLNLKQVDNEEKFDFSGLRLDWFRLQAYTSVSKAPLHLHENPDLAKVMNLIIFHSQMLDSVEKMLVETSDLSTFCFHLRTFEKMFATTLEEPTMLRYTIAFPLICAHFVHCVHEMCPEEYPHLKNHGLHHCNSFLEDLAKQTSNCVLEICAEQRNLNEQLLPKHCATTISKAKNKKSMKQRQAPRKGEPERDKPGAESHRKNRSLVTNMDKLHLNLTELALAMNHVHSFSVFEHTIFPSEYLSSHLEARLNRAIVTLAGYNATTQEILRPSELLAGVKAYISFIQSLAQFLGADASRIVRNALLQQTQPLDSSGEQTVTTLYTNWYLESLLRQASSGAIVLSPAMQAFISLPRDGEQNFSAEEFSDISEMRALAEILGPYGMKFLSENLMWHVTSQIVELKKLVVENMDILVQIRSNFSKPELMASLLPQLTGAENVLKRMTIIGVILSFRAMAQEGLQEVFSAHCPFLMGPIECLKEFVTPDTDIKVTLSVFELACAAGVSCDIDPALVAAIANLKADNSSPEEEYKVACLLLIFLAVSLPLLATDPSSFFSIEKDGYNNNIHCLTKAIIQVSAALFTLYNKNIETHLKEFLVVASVSLLQLGQETDKLKTRNRESISLLMRLVVEESPFLTLDMLESCFPYVLLRNAYREVSRAFYLNRLPASSH
B3: Arhgef7, endogenous in murine DC2.4 cells (natural protein)
chain: MNSAEQTVTWLITLGVLESPKKTISDPEVFLQASLKDGVVLCRLLERLLPGTIEKVYPEPRNESECLSNIREFLRACGASLRLETFDANDLYQGQNFNKVLSSLVTLNKVTADIGLGSDSVCARPSSHRIKSFDSLGSQSSHSRTSKLLQSQYRSLDMTDNTNSQLVVRAKFNFQQTNEDELSFSKGDVIHVTRVEEGGWWEGTHNGRTGWFPSNYVREIKPSEKPVSPKSGTLKSPPKGFDTTAINKSYYNVVLQNILETEHEYSKELQSVLSTYLRPLQTSDKLSSANTSYLMGNLEEISSFQQVLVQSLEECTKSPEAQQRVGGCFLSLMPQMRTLYLAYCANHPSAVSVLTEHSEDLGEFMETKGASSPGILVLTTGLSKPFMRLDKYPTLLKELERHMEDYHPDRQDIQKSMTAFKNLSAQCQEVRKRKELELQILTEPIRSWEGDDIKTLGSVTYMSQVTIQCAGSEEKNERYLLLFPNLLLMLSASPRMSGFIYQGKLPTTGMTITKLEDSENHRNAFEISGSMIERILVSCTSQQDLHEWVEHLQKQTKVTSVSNPTIKPHSVPSHTLPSHPLTPSSKHADSKPVALTPAYHTLPHPSHHGTPHTTISWGPLEPPKTPKPWSLSCLRPAPPLRPSAALCYKEDLSKSPKTMKKLLPKRKPERKPSDEEFAVRKSTAALEEDAQILKVIEAYCTSAKTRQTLNSTWQGTDLMHNHVLADDDQSSLDSLGRRSSLSRLEPSDLSEDSEYDSIWTAHSYRMGSASRSRKESAPQVLLPEEEKIIVEETKSNGQTVIEEKSLVDTVYALKDEVQELRQDNKKMKKSLEEEQRARKDLEKLVRKVLKNMNDPAWDETNL
B4: Brk1 (Hspc300), endogenous in murine DC2.4 cells (natural protein)
chain: MAGQEDPVQREIHQDWANREYIEIITSSIKKISDFLNSFDMSCRSRLATLNEKLTALERRIEYIEARVTKGETLT
B5: Sh3rf1, endogenous in murine DC2.4 cells (natural protein)
chain: MDESALLDLLECPVCLERLDASAKVLPCQHTFCKRCLLGIVGSRNELRCPECRTLVGSGVDELPSNILLVRLLDGIKQRPWKPGPGGGGGTTCTNTLRAQGSTVVNCGSKDLQSSQCGQQPRVQAWSPPVRGIPQLPCAKALYNYEGKEPGDLKFSKGDIIILRRQVDENWYHGEVSGVHGFFPTNFVQIIKPLPQPPPQCKALYDFEVKDKEADKDCLPFAKDDVLTVIRRVDENWAEGMLADKIGIFPISYVEFNSAAKQLIEWDKPPVPGVDTAECPSATAQSTSASKHPDTKKNTRKRHSFTSLTMANKSSQGSQNRHSMEISPPVLISSSNPTAAARISELSGLSCSAPSQVHISTTGLIVTPPPSSPVTTGPAFTFPSDVPYQAALGSMNPPLPPPPLLAATVLASTPSGATAAVAAAAAAAAAAGMGPRPVMGSSEQIAHLRPQTRPSVYVAIYPYTPRKEDELELRKGEMFLVFERCQDGWYKGTSMHTSKIGVFPGNYVAPVTRAVTNASQAKVSMSTAGQASRGVTMVSPSTAGGPTQKPQGNGVAGNPSVVPTAVVSAAHIQTSPQAKVLLHMSGQMTVNQARNAVRTVAAHSQERPTAAVTPIQVQNAACLGPASVGLPHHSLASQPLPPMAGPAAHGAAVSISRTNAPMACAAGASLASPNMTSAMLETEPSGRTVTILPGLPTSPESAASACGNSSAGKPDKDSKKEKKGLLKLLSGASTKRKPRVSPPASPTLDVELGAGEAPLQGAVGPELPLGGSHGRVGSCPTDGDGPVAAGTAALAQDAFHRKTSSLDSAVPIAPPPRQACSSLGPVMNEARPVVCERHRVVVSYPPQSEAELELKEGDIVFVHKKREDGWFKGTLQRNGKTGLFPGSFVENI
B6: Sorbs1 (Cap), endogenous in murine DC2.4 cells (natural protein)
chain: MSSECDVGSSKAVVNGLASGNHGPDKDMDPTKICTGKGTVTLRASSSYRGTPSSSPVSPQESPKHESKSGLEPEDPSADEWKLSSSADTNGNAQPSPLAAKGYRSVHPSLSADKPQGSPLLNEVSSSHIETDSQDFPPTSRPSSAYPSTTIVNPTIVLLQHNRDPASERRAGEQDPVPTPAELTSPGRASERRAKDASRRVVRSAQDLSDVSTDEVGIPLRNTERSKDWYKTMFKQIHKLNRDDDSDVHSPRYSFSDDTKSPLSVPRSKSEMNYIEGEKVVKRSATLPLPARSSSLKSSPERNDWEPLDKKVDTRKYRAEPKSIYEYQPGKSSVLTNEKMSRDISPEEIDLKNEPWYKFFSELEFGRPTNLEKDLSFCQAELEADLEKVETVNKSPSANSPQSSAVSPTPDITSEPPGYIYSSNFHAVKRESDGTPGGLASLENERQIYKSVLEGGDIPLQGLSGLKRPSSSASTKVDRKGGNAHMISSSSVHSRTFHTSNALGPGCKHKKPLSAAKACISEILPSKFKPRLSAPSALLQEQKSVLLPSEKAQSCENLCVSLNDSKRGLPLRVGGSIENLLMRSRRDYDSKSSSTMSLQEYGTSSRRPCPLSRKAGLHFSMFYRDMHQINRAGLSLGSISSSSVRDLASHFERSSLTLARGELGASQEGSEHIPKHTVSSRITAFEQLIQRSRSMPSLDFSGRLSKSPTPVLSRSGLTSARSAESLLESTKLRPREMDGMDSGGVYASPTCSNMADHALSFRSLVPSEPLSICSDELDHCSNVSNDSREGSGGSVHGDFPKHRLNKCKGTCPASYTRFTTIRKHEQQSSRQSDWRSDSRGDKNSLLRNIHLMSPLPFRLKKPLQQHPRQPPPSDSSESPAGQKADLPCHDPQDQPHSAGKPQVPTRLSSRHTMARLSHNSEPPLDRPAGLEDCTRAINNGNPVPYSDHGLDRNNNPQSELAAAHGDSESPRHFIPADYLESTEEFIRRRHDDKEKLLADQRRLKREQEEADIAARRHTGVIPTHHQFITNERFGDLLNIDDTAKRKSGLEMRPARAKFDFKAQTLKELPLQKGDVVYIYRQIDQNWYEGEHHGRVGIFPRTYIELLPPAEKAQPRKLAPVQVLEYGEAIAKFNFNGDTQVEMSFRKGERITLLRQVDENWYEGRIPGTSRQGIFPITYVDVLKRPLVKTPVDYIDLPYSSSPSRSATVSPQQPQAQQRRVTPDRSQPSLDLCSYQALYSYVPQNDDELELRDGDIVDVMEKCDDGWFVGTSRRTRQFGTFPGNYVKPLYL

Each binder was assayed against TgWIP^(PRR2 mut), HA-tagged (Toxoplasma gondii) (assay: affinity purification with mass spectrometry; HA-tagged TgWIP variants pulled down by the HA tag from lysates of DC2.4 cells infected 4 h at MOI 7; host partners by mass spectrometry; values are negative fold changes in peptide counts of the mutant immunoprecipitations relative to TgWIP^WT).
B1 was tested, and the negative fold change in peptide counts relative to TgWIP^WT was 3 fold. B2 gave a negative fold change in peptide counts relative to TgWIP^WT of 3 fold. For B3, the negative fold change in peptide counts relative to TgWIP^WT was 4 fold. Binder B4 has a negative fold change in peptide counts relative to TgWIP^WT of 4 fold. With B5 the negative fold change in peptide counts relative to TgWIP^WT was 10 fold. In the case of B6, the negative fold change in peptide counts relative to TgWIP^WT is reported as 14 fold.

These binders were tested against TgWIP^(PRR3 mut), HA-tagged (Toxoplasma gondii) in the same assay as above.
For B1, the negative fold change in peptide counts relative to TgWIP^WT was 7 fold. B2 was tested, and the negative fold change in peptide counts relative to TgWIP^WT was 4 fold. Binder B3 has a negative fold change in peptide counts relative to TgWIP^WT of 8 fold. For B4, the negative fold change in peptide counts relative to TgWIP^WT was 9 fold. Binder B5 has a negative fold change in peptide counts relative to TgWIP^WT of 6 fold. B6 showed a negative fold change in peptide counts relative to TgWIP^WT of 30 fold.

Each binder was assayed against TgWIP^(WIRS mut), HA-tagged (Toxoplasma gondii) in the same assay as above.
For B1, the negative fold change in peptide counts relative to TgWIP^WT was 2 fold. Work on B2 yielded a negative fold change in peptide counts relative to TgWIP^WT of 2 fold. B3 showed a negative fold change in peptide counts relative to TgWIP^WT of 2 fold. Work on B4 yielded a negative fold change in peptide counts relative to TgWIP^WT of 3 fold. For B5, the negative fold change in peptide counts relative to TgWIP^WT was 2 fold. B6 gave a negative fold change in peptide counts relative to TgWIP^WT of 2 fold.

These binders were tested against TgWIP^Y150A/Y199A, HA-tagged (Toxoplasma gondii) in the same assay as above.
With B1 the negative fold change in peptide counts relative to TgWIP^WT was 2 fold. B2 gave a negative fold change in peptide counts relative to TgWIP^WT of 1 fold. With B3 the negative fold change in peptide counts relative to TgWIP^WT was 3 fold and 2 fold. B4 showed a negative fold change in peptide counts relative to TgWIP^WT of 1 fold. With B5 the negative fold change in peptide counts relative to TgWIP^WT was 2 fold. B6 showed a negative fold change in peptide counts relative to TgWIP^WT of 1 fold.
